According to patent US20200392198A1 (UNIVERSITY OF COPENHAGEN, published 2020):
Ends that are not written are not given here. * marks the point of attachment. Palmitoyl = CCCCCCCCCCCCCCCC(=O)*; Lauroyl = CCCCCCCCCCCC(=O)*

T1: human GIP receptor (human, UniProt P48546 22-466)
T1 sequence (looked up): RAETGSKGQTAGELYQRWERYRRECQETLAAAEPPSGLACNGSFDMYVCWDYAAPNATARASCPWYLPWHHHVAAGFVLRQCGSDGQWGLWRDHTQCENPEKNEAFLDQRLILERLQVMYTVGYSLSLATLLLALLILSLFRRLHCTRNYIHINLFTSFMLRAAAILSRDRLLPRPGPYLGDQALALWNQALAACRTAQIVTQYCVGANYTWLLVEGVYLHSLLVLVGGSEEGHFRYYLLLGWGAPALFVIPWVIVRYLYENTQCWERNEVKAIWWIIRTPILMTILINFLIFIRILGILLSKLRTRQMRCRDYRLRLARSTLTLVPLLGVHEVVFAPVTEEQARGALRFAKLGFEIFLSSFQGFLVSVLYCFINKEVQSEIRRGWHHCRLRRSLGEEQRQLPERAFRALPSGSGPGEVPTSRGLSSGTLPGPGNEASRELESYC

T2: human GLP-2 receptor (human, UniProt O95838 1-553)
T2 sequence (looked up): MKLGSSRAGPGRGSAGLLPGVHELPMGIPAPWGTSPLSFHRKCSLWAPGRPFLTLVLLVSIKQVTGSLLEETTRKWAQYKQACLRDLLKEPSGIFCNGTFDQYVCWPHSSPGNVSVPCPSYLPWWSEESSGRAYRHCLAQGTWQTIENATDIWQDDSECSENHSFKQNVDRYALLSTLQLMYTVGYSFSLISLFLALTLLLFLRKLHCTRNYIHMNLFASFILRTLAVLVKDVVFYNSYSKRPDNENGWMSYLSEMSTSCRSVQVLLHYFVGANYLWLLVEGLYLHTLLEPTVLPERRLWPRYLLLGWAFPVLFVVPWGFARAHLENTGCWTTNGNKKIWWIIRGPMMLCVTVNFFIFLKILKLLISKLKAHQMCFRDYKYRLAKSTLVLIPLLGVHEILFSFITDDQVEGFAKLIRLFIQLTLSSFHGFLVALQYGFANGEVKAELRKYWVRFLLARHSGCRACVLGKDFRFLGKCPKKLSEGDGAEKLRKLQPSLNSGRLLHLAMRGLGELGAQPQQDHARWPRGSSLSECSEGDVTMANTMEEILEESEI


The binders below were run against T1, human GIP receptor (assay: cell-based or functional assay).

Row | Binder | EC50 (cAMP) | Emax (10 µM), % of native GIP | fold (EC50 vs native GIP) | logEC50 (cAMP)
1 | HADGTFISDYSTILDNLAARDFINWLIQTK(Palmitoyl)ITK [GIP-GLP-2 co-agonist 31] | 1.7 nM | 91% | 19 fold | -8.77
2 | HADGTFISDYSTILDNLAARDFINWLIQTKITK (C12 acyl group on Lys 33 (K(C12/33), 'with C12 pos 33')) [GIP-GLP-2 co-agonist 32] | 0.15 nM | 100% | 1.7 fold | -9.81
3 | HADGTFISDYSTILDNLAARDFINWLIQTKITK (C16 acyl group on Lys 33 (K(c16/33), 'with C16 pos 33')) [GIP-GLP-2 co-agonist 33] | 0.32 nM | 100% | 3.6 fold | -9.5
4 | HADGTFISDYSTILDNLAARDFINWLIQTKGKKNDWKHNITQ [GIP-GLP-2 co-agonist 34] | 0.1 nM | 100% | 1.1 fold | -10
5 | HADGTFISDYSTILDNLAARDFINWLIQTKGK(Lauroyl)K [GIP-GLP-2 co-agonist 35] | 0.48 nM | 99% | 5.4 fold | -9.32
6 | HADGTFISDYSTILDNLAARDFINWLIQTKGK(Palmitoyl)K [GIP-GLP-2 co-agonist 36] | 0.79 nM | 100% | 8.9 fold | -9.1

These binders were tested against T2, human GLP-2 receptor (assay: cell-based or functional assay).

Row | Binder | EC50 (cAMP) | Emax (10 µM), % of native GLP-2 | fold (EC50 vs native GLP-2) | logEC50 (cAMP)
7 | HADGTFISDYSTILDNLAARDFINWLIQTK(Palmitoyl)ITK [GIP-GLP-2 co-agonist 31] | 107 nM | 91% | 89 fold | -6.97
8 | HADGTFISDYSTILDNLAARDFINWLIQTKITK (C12 acyl group on Lys 33 (K(C12/33), 'with C12 pos 33')) [GIP-GLP-2 co-agonist 32] | 6.2 nM | 91% | 5.1 fold | -8.21
9 | HADGTFISDYSTILDNLAARDFINWLIQTKITK (C16 acyl group on Lys 33 (K(c16/33), 'with C16 pos 33')) [GIP-GLP-2 co-agonist 33] | 13 nM | 82% | 11 fold | -7.89
10 | HADGTFISDYSTILDNLAARDFINWLIQTKGKKNDWKHNITQ [GIP-GLP-2 co-agonist 34] | 1.2 nM | 94% | 0.96 fold | -8.94
11 | HADGTFISDYSTILDNLAARDFINWLIQTKGK(Lauroyl)K [GIP-GLP-2 co-agonist 35] | 2.3 nM | 68% | 1.9 fold | -8.63
12 | HADGTFISDYSTILDNLAARDFINWLIQTKGK(Palmitoyl)K [GIP-GLP-2 co-agonist 36] | 20 nM | 71% | 17 fold | -7.7
